Tests used:
Assay in all cases: electrochemical aptasensor (IPA 500 Hz, flow cell)
Conditions in all cases: 1-1000 pg/mL; NPY signal about 10x higher; 5' thiol C6 (disulfide reduced), 3' amino linker; aCSF pH 7.4 (composition by citation); SWV -0.4 to 0.0 V, 30 Hz; IPA 500 Hz in flow cell; assay temperature not stated
[1] = biological target: T1, Pancreatic polypeptide (PP) (UniProt P01298)
T1 sequence: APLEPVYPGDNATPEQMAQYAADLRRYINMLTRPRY

Peptide YY (PYY) = Peptide YY (PYY) (UniProt P10082)
Somatostatin (SOM) = biological target: T2, Somatostatin (SOM) (UniProt P61278)
T2 sequence: AGCKNFFWKTFTSC

Measured: binding signal (fraction of NPY signal)

Sequence of Peptide YY (PYY) (P10082 29-64): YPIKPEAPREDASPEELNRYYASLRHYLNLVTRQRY

AGCAGCACAGAGGTCAGATGCAAACCACAGCCTGAGTGGTTAGCGTATGTCATTTACGGACCTATGCGTGCTACCGTGAA [Aptamer 4.31]
0.1: all assays above

— PMC11127761
